Source: PMC10457294 (Nature Communications, 2023)

B1: human B7.1 ectodomain, His-tagged (domain or fragment)
chain: VIHVTKEVKEVATLSCGHNVSVEELAQTRIYWQKEKKMVLTMMSGDMNIWPEYKNRTIFDITNNLSIVILALRPSDEGTYECVVLKYEKDAFKREHLAEVTLSVKADFPTPSISDFEIPTSNIRRIICSTSGGFPEPHLSWLENGEELNAINTTVSQDPETELYAVSSKLDFNMTTNHSFMCLIKYGHLRVNQTFNWNTT
notes: also called hB7.1; CD80
B2: human B7.1 ectodomain fused to human Fc (Fc fusion, UniProt P33681-1 35-234, looked up)
chain: B1 chain
notes: also called hB7.1-Fc; hB7.1-hFc; not shown: Fc (human), C-terminal, kept
B3: human B7.2 ectodomain, His-tagged (domain or fragment)
chain: LKIQAYFNETADLPCQFANSQNQSLSELVVFWQDQENLVLNEVYLGKEKFDSVHSKYMGRTSFDSDSWTLRLHNLQIKDKGLYQCIIHHKKPTGMIRIHQMNSELSVLANFSQPEIVPISNITENVYINLTCSSIHGYPEPKKMSVLLRTKNSTIEYDGVMQKSQDNVTELYDVSISLSVSFPDVTSNMTIFCILETDKTRLLSSPFSIELED
notes: also called hB7.2; CD86
B4: human B7.2 ectodomain fused to human Fc (Fc fusion)
chain: B3 chain
notes: also called hB7.2-Fc; hB7.2-hFc; not shown: Fc (human), C-terminal, kept

What was measured:
[1] = target: MPXV Bio-M2 (site-specifically biotinylated MPXV Avi-M2) (monkeypox virus (Clade I), UniProt Q8V554 18-220); experiment: BLI; […] (10 ug/mL) […]; 10 mM HEPES pH 7.4, 150 mM NaCl, 3 mM EDTA, 1% BSA; 1:1 Langmuir model, […]; conditions: both partners purified
[2] = target: T1, MPXV M2 (monkeypox virus M2 protein), His-tagged, wild type (monkeypox virus (Clade I), UniProt Q8V554 18-220); experiment: BLI; […] (10 ug/mL) […]; 10 mM HEPES pH 7.4, 150 mM NaCl, 3 mM EDTA, 0.05% Tween, 1% BSA; 25 °C; 1:1 model; […]; conditions: both partners purified
T1 construct: copies: 6 or 7

Binder | Kd [1] [nM] | t1/2 (dissociation half-life time) [1] [min] | Kd [2] [nM]
B1 | 95.3 | 1.71 | –
B2 | – | – | 0.15
B3 | 388 | 0.345 | –
B4 | – | – | 0.05
